From US20250186602A1, “HUMANIZED ANTIBODY THAT BONDS TO EVA1 PROTEIN OR FUNCTIONAL FRAGMENT THEREOF, ANTIBODY-DRUG CONJUGATE AND CHIMERIC ANTIGEN RECEPTOR” (CURED INC., priority 2022, published 2025) come the findings set out here.

Substitutions are numbered along the chain they refer to. Entries after “also recorded” stand apart in the source; their conditions may differ.

Test [1] concerns Eval-positive HuCCT-1. The test can be described thus: Amplification of Eval-CAR-T after antigen stimulation (co-culture with irradiated Eval-positive HuCCT-1). In kind it is cell-based, human. The protocol: Eval-positive HuCCT-1, was irradiated with a radioactive ray of 100 Gy, and was co-cultured with the CAR-Ts in 1:1, and the amplification efficiencies of these were analyzed. In FIG. 3J, amplification efficiencies in time series are shown. In FIG. 3K, the amplification factors at Day 4 were plotted.
In the same manner as described above, Eval-positive HuCCT-1, was irradiated with a radioactive ray of 100 Gy, and was co-cultured with the CAR-T-cells in 1:1. Then, 50 U/ml of IL-2 was added once every three days, at Day 1, 4, and 7, followed by culturing. In FIG. 3L, the respective amplification efficiencies in time series are shown. In FIG. 3M, the amplification factors at Day 18 were plotted.
In the same manner as described above, Eval-positive HuCCT-1, was irradiated with a radioactive ray of 100 Gy, and was co-cultured with hEva1 CAR-T-cells in 1:1.
In the same manner as described above, Eval-positive HuCCT-1, was irradiated with a radioactive ray of 100 Gy, and was co-cultured with hEva1-CAR-Ts in 1:1.

In test [2] the test system is various tumor cell lines (Eval positive and Eval negative). The test is described as follows: Cytokine production of Eval-CAR-T co-cultured with tumor cell lines (intracellular staining, flow cytometry). Particulars: co-culture 1:1, 6 hours, Day 17 cells. It counts as cell-based, human. How it is done:
Next, the cytokine production capacity of the Eval-CAR-T using the anti-human Eval mouse antibody sequence was analyzed. Specifically, CAR-T prepared as described above was cultured until day 17, and the cells were co-cultured with various main cell lines in 1:1. After co-culturing for 6 hours, immobilization and intracellular staining (BD cytofix/cytoperm buffer) were conducted to stain the cells with IFN-gamma (IFN-γ).
The experiment was conducted by using the above-described Eval-CAR-Ts at Day 17. Specifically, the Eval-CAR-Ts were co-cultured with tumor cell lines in 1:1, and the cells were immobilized and stained in the same methods as described above after 6 hours, and intracellular IFN-gamma and IL-2 were evaluated with flow cytometry.
The experiment was conducted by using hEva1-CAR-Ts at Day 17. Specifically, hEva1-CAR-Ts were co-cultured with tumor cell lines in 1:1, and the cells were immobilized and stained in the same manner as described above after 6 hours, and intracellular IFN-gamma and IL-2 were evaluated with flow cytometry. These figures show the percentages at which the cytokine was positive among the CD8 positive cells.
The experiment was conducted by using the above-described hEva1-CAR-Ts at Day 17. Specifically, the hEva1-CAR-Ts were co-cultured with tumor cell lines in 1:1, and the cells were immobilized and stained in the same manner as described above after […], and intracellular IFN-gamma and IL-2 were evaluated with flow cytometry. These figures show the percentages at which each cytokine was positive among the CD8 positive cells.

The target in test [3] is T1, hEva1-mouse Fc (human, UniProt O60487 27-154, limits assumed).
T1 construct: SPR analyte; the '1' is probably the first concentration (1 nM); also called hEva1-mouse Fc1 (so in the source); not shown: mouse Fc
T1 sequence: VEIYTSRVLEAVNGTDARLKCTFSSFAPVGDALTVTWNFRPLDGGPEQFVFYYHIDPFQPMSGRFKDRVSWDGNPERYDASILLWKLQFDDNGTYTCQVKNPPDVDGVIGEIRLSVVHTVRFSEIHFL
The test is described as follows: SPR (BiaCore T200), single-cycle kinetics; antibody captured by anti-human IgG on CM5 chip, hEva1-mouse Fc as analyte; antibody made in HEK293T cells. The protocol: (§1) The dissociation constants and association constants of the humanized antibodies and the like were analyzed by using surface plasmon resonance (SPR, product name: BiaCore T200 (manufactured by GE healthcare)).
Specifically, first, human IgG capture antibodies were immobilized on a CM5 chip by an amine coupling method. […] Then, the kinetics analysis on the anti-Eval antibody and hEva1 was conducted by a single-cycle method using the following measurement conditions.
In general terms: Surface plasmon resonance follows binding to a sensor surface in real time, without labels.

Test [4] concerns the target T1, hEva1-mouse Fc. The test is described as follows: SPR (BiaCore T200), single-cycle kinetics; antibody captured by anti-human IgG on CM5 chip, hEva1-mouse Fc as analyte; antibody made in CHO cells.
For test [5], the system named is hEva1-mouse Fc. The test is described as follows: Surface plasmon resonance kinetics analysis (BiaCore T200, single-cycle). It counts as binding, human. Particulars: SPR, antibody captured 5 nM, analyte hEva1-mouse Fc 1-250 nM, HBS-EP+ pH 7.4. The protocol: as §1
Specifically, first, human IgG capture antibodies were immobilized on a CM5 chip by an amine coupling method. This immobilization was conducted in both reference cells and active cells. Then, the kinetics analysis on the anti-Eval antibody and hEva1 was conducted by a single-cycle method using the following measurement conditions.
• Sample compartment temperature: 10° C. • Running buffer: HBS-EP+buffer, pH 7.4 • Capturing molecule: Human IgG antibody, reference & active cells • Ligand: Various antibodies 5 nM, active cells only • Analyte: hEva1-mouse Fc1, 5, 25, 125, 250 nM, reference & active cells • Regeneration buffer: 3M MgCl2, reference & active cells • 3 cycles of Blanks (Analyte zero concentration)

[6] abbreviates: 50 U/ml IL-2 at Day 1, 4, 7, co-culture 1:1 with HuCCT-1 irradiated 100 Gy.
Setting [7] is: absence of IL-2, co-culture 1:1 with HuCCT-1 irradiated 100 Gy.

“30aa: mouse antibody-derived Eval-CAR-T with spacer length 30aa (SEQ ID NO: 60) (EPKSSDKTHTSPPCPAPEFLGGPSVFLFPP; Hinge region:30aa)”: the “amplification efficiency after Eval stimulation” value is listed as “cell amplifications tended to be better” in test [1] (setting [6]) and “higher cell amplifications” in test [1] (setting [7]). The “cytokine production (intracellular IFN-gamma and IL-2)” value in test [2] is on record as “excellent cytokine productions”.
In the case of “15aa: mouse antibody-derived Eval-CAR-T with spacer length 15aa (SEQ ID NO: 59) (EPKSSDKTHTSPPCP; Hinge region:15aa)”, the entries for the “amplification efficiency after Eval stimulation” value in test [1] (setting [6]) and in test [1] (setting [7]) were “cell amplifications tended to be better; also recorded: most excellent in cell growth” and “higher cell amplifications”, respectively.

B1: chimeric human IgG1 (constant regions of the B2E5-48 mouse antibody replaced by those of human IgG type 1) (antibody, V domains shown)
VH: QVQLQQPGAELVKPGASVKLSCKASGYTFTNYWMHWVKLRPGQGFEWIGEINPTNGGTDYNEKFKRKATLTVDKSSSTAYMQLSSLTSEDSAVYYCTIYTTALDYWGQGTTLTVSS
VL: QIVLTQSPALMSASPGERVTLTCSASSSVGYMYWYQQKPGSSPKPWIYVTSNLASGVPARFSGSGSGTSYSLTISSMEAEDAATYYCQQWSSNPPTFGAGTKLELK
notes: Mouse B2E5-48 variable regions on human IgG1 constant regions; The same construct was made in HEK293T cells and in CHO cells and both preparations were measured; also called Chimeric antibody (CHO); Chimeric antibody (293T)
As usually defined, the Kd is the concentration at which binding is half-saturated. Low values mean a tighter complex, high ones a looser complex. As a reminder, the koff is the first-order rate constant of dissociation. Read a high koff as fast dissociation. A word on the kon: it is the rate constant with which the complex forms. Higher therefore signals fast association. In the case of B1, in test [3], the dissociation constant Kd is 482 nM, the koff was determined as 0.00947 s⁻¹ and the kon stood at 19600 M⁻¹ s⁻¹. In test [4], this molecule came in with a dissociation constant Kd of 445 nM, a koff of 0.00845 s⁻¹ and an on-rate constant (kon) of 19000 M⁻¹ s⁻¹.

B2: Chimeric antibody (CHO): chimeric human IgG1 obtained by substituting the constant regions of the B2E5-48 mouse antibody with those of human IgG type 1; control (antibody, V domains shown)
VH: B1 VH
VL: B1 VL
In test [5], B2 showed a ka of 19010 M⁻¹ s⁻¹ and a kd of 0.008447 s⁻¹.

B3: Chimeric antibody (293T): chimeric human IgG1 obtained by substituting the constant regions of the B2E5-48 mouse antibody with those of human IgG type 1; control (antibody, V domains shown)
VH: B1 VH
VL: B1 VL
Take B3: in test [5], the ka was found to be 19640 M⁻¹ s⁻¹ and the kd turned out to be 0.00947 s⁻¹.

B4: H3-L3: humanized B2E5-48 IgG1, VH H3 (SEQ ID NO: 16), VL L3 (SEQ ID NO: 10) (antibody, V domains shown)
VH: QVQLVQSGSELKKPGASVKVSCKASGYTFTNYWMHWVRQAPGQGLEWIGEINPTNGGTDYNEGFTGRFVLSVDKSSSTAYLQISSLKAEDTAVYYCTIYTTALDYWGQGTLVTVSS
VL: QIQLTQSPSFLSASVGDRVTITCRASSSVGYMYWYQQKPGKAPKPLIYVTSNLASGVPSRFSGSGSGTEYTLTISSLQPEDFATYYCQQWSSNPPTFGQGTKLEIK
modifications: Variable Region of Heavy Chain 3 (Humanized B2E5-48); Variable Region of Light Chain 3 (Humanized B2E5-48)
In test [5], B4 came in with a ka of 15010 M⁻¹ s⁻¹ and a kd of 0.01253 s⁻¹.

B5: H3-L4: humanized B2E5-48 IgG1, VH H3 (SEQ ID NO: 16), VL L4 (SEQ ID NO: 8) (antibody, V domains shown)
VH: B4 VH
VL: B4 VL with Q1D
modifications: Variable Region of Heavy Chain 3 (Humanized B2E5-48); Variable Region of Light Chain 4 (Humanized B2E5-48)
With B5, in test [5], the ka worked out at 15800 M⁻¹ s⁻¹ and the kd was determined as 0.0138 s⁻¹.

B6: H4-L4: humanized B2E5-48 IgG1, VH H4 (SEQ ID NO: 14), VL L4 (SEQ ID NO: 8) (antibody, V domains shown)
VH: B4 VH with I48M, L70F, S76V
VL: B4 VL with Q1D
modifications: Variable Region of Heavy Chain 4 (Humanized B2E5-48); Variable Region of Light Chain 4 (Humanized B2E5-48)
B6: in test [5], the ka amounted to 15340 M⁻¹ s⁻¹ and the kd was determined as 0.01525 s⁻¹.

B7: H4-L2: humanized B2E5-48 IgG1, VH H4 (SEQ ID NO: 14), VL L2 (SEQ ID NO: 7) (antibody, V domains shown)
VH: B4 VH with I48M, L70F, S76V
VL: EIVLTQSPATLSLSPGERATLSCRASSSVGYMYWYQQKPGQAPRPLIYVTSNRATGIPARFSGSGSGTDYTLTISSLEPEDFAVYYCQQWSSNPPTFGQGTKLEIK
modifications: Variable Region of Heavy Chain 4 (Humanized B2E5-48); Variable Region of Light Chain 2 (Humanized B2E5-48)
In test [5], B7 registered a ka of 18980 M⁻¹ s⁻¹ and a kd of 0.01457 s⁻¹.

B8: H4-L3: humanized B2E5-48 IgG1, VH H4 (SEQ ID NO: 14), VL L3 (SEQ ID NO: 10) (antibody, V domains shown)
VH: B4 VH with I48M, L70F, S76V
VL: B4 VL
modifications: Variable Region of Heavy Chain 4 (Humanized B2E5-48); Variable Region of Light Chain 3 (Humanized B2E5-48)
In test [5], B8 yielded a ka of 15480 M⁻¹ s⁻¹ and a kd of 0.01357 s⁻¹.

B9: 125aa: mouse antibody-derived Eval-CAR-T with spacer length 125aa (SEQ ID NO: 62) (protein)
chain: EPKSSDKTHTSPPCPAPEFLGGPSVFLFPPKPKDTLMISRTPEVTCVVVDVSQEDPEVQFNWYVDGVEVHNAKTKPREEQFNSTYRVVSVLTVLHQDWLNGKEYKCKVSNKGLPSSIEKTISKAK
modifications: Hinge region:125aa
On to B9, for which the “cytokine production (intracellular IFN-gamma and IL-2)” value in test [2] was “excellent cytokine productions”.
